# Data as given in IntAct's records for PubMed 29039417.
# B1: Protein PTHB1 (Homo sapiens), Q3SYG4 (parent)
# chain: MSLFKARDWWSTILGDKEEFDQGCLCLANVDNSGNGQDKIIVGSFMGYLRIFSPHPAKTGDGAQAEDLLLEVDLRDPVLQVEVGKFVSGTEMLHLAVLHSRKLCVYSVSGTLGNVEHGNQCQMKLMYEHNLQRTACNMTYGSFGGVKGRDLICIQSMDGMLMVFEQESYAFGRFLPGFLLPGPLAYSSRTDSFLTVSSCQQVESYKYQVLAFATDADKRQETEQQKLGSGKRLVVDWTLNIGEQALDICIVSFNQSASSVFVLGERNFFCLKDNGQIRFMKKLDWSPSCFLPYCSVSEGTINTLIGNHNNMLHIYQDVTLKWATQLPHIPVAVRVGCLHDLKGVIVTLSDDGHLQCSYLGTDPSLFQAPNVQSRELNYDELDVEMKELQKIIKDVNKSQGVWPMTEREDDLNVSVVVSPNFDSVSQATDVEVGTDLVPSVTVKVTLQNRVILQKAKLSVYVQPPLELTCDQFTFEFMTPDLTRTVSFSVYLKRSYTPSELEGNAVVSYSRPTDRNPDGIPRVIQCKFRLPLKLICLPGQPSKTASHKITIDTNKSPVSLLSLFPGFASQSDDDQVNVMGFHFLGGARITVLASKTSQRYRIQSEQFEDLWLITNELILRLQEYFEKQGVKDFACSFSGSIPLQEYFELIDHHFELRINGEKLEELLSERAVQFRAIQRRLLARFKDKTPAPLQHLDTLLDGTYKQVIALADAVEENQGNLFQSFTRLKSATHLVILLIALWQKLSADQVAILEAAFLPLQEDTQELGWEETVDAAISHLLKTCLSKSSKEQALNLNSQLNIPKDTSQLKKHITLLCDRLSKGGRLCLSTDAAAPQTMVMPGGCTTIPESDLEERSVEQDSTELFTNHRHLTAETPRPEVSPLQGVSE
# partner: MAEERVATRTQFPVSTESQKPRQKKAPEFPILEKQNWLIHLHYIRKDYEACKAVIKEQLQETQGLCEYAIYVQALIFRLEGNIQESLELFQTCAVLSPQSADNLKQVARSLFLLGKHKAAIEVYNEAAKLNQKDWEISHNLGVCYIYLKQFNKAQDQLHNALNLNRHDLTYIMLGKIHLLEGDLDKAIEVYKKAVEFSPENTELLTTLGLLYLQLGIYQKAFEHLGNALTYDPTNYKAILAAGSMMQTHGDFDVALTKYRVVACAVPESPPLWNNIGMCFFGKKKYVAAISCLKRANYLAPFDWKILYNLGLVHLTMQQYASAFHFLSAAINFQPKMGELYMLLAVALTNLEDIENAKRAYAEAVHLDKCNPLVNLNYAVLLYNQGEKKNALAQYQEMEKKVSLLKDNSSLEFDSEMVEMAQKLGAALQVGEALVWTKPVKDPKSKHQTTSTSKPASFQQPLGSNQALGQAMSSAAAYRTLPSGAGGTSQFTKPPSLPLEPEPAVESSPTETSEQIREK
# B2: BBSome complex member BBS2 (Homo sapiens), Q9BXC9 (parent)
# chain: MLLPVFTLKLRHKISPRMVAIGRYDGTHPCLAAATQTGKVFIHNPHTRNQHVSASRVFQSPLESDVSLLSINQAVSCLTAGVLNPELGYDALLVGTQTNLLAYDVYNNSDLFYREVADGANAIVLGTLGDISSPLAIIGGNCALQGFNHEGSDLFWTVTGDNVNSLALCDFDGDGKKELLVGSEDFDIRVFKEDEIVAEMTETEIVTSLCPMYGSRFGYALSNGTVGVYDKTSRYWRIKSKNHAMSIHAFDLNSDGVNELITGWSNGKVDARSDRTGEVIFKDNFSSAIAGVVEGDYRMDGHIQLICCSVDGEIRGYLPGTAEMRGNLMDTSAEQDLIRELSQKKQNLLLELRNYEENAKAELASPLNEADGHRGIIPANTRLHTTLSVSLGNETQTAHTELRISTSNDTIIRAVLIFAEGIFTGESHVVHPSIHNLSSSICIPIVPPKDVPVDLHLKAFVGYRSSTQFHVFESTRQLPRFSMYALTSLDPASEPISYVNFTIAERAQRVVVWLGQNFLLPEDTHIQNAPFQVCFTSLRNGGHLHIKIKLSGEITINTDDIDLAGDIIQSMASFFAIEDLQVEADFPVYFEELRKVLVKVDEYHSVHQKLSADMADHSNLIRSLLVGAEDARLMRDMKTMKSRYMELYDLNRDLLNGYKIRCNNHTELLGNLKAVNQAIQRAGRLRVGKPKNQVITACRDAIRSNNINTLFKIMRVGTASS
# partner: B1 chain
# Variants of: B1
# Settings: with bbs4_human BBS4, Q96RK4
row,effect of a mutation on the interaction,Variant
1,with no effect,L863A
2,with no effect,R407E
3,with no effect,N614K
4,with no effect,T512A
5,with no effect,S488K
6,with no effect,V432A
7,with no effect,I550E
8,with no effect,L591K
9,with no effect,F421E
10,with no effect,E622K
11,with no effect,L648E
12,with no effect,N576K
13,with no effect,M578K
14,with no effect,F636A
15,with no effect,L560E
16,with no effect,G701A
17,with no effect,Q858K
18,with no effect,L642E
19,with no effect,G884K
20,with no effect,S596E
21,with no effect,Q627A
22,with no effect,Q883A
23,with no effect,T731K
24,with no effect,S637E
25,with no effect,L698A
26,with no effect,L851K
27,with no effect,T725E
28,with no effect,V413A
29,with no effect,S418E

# Variants of: B2
# Settings: with pthb1_human BBS9, Q3SYG4
row,effect of a mutation on the interaction,Variant
1,with no effect,L337A
2,with no effect,L337K
3,with no effect,L337E
4,with no effect,K344A
5,with no effect,K344E
6,with no effect,S342E
7,with no effect,S342A
8,with no effect,S342K
9,with no effect,D330E
10,with no effect,D330K
11,with no effect,D330A
12,with no effect,M329E
13,with no effect,M329A
14,with no effect,M329K
15,with no effect,Q343A
16,with no effect,Q343E
17,with no effect,Q343K
18,with no effect,T331K
19,with no effect,T331A

row,effect of a mutation on the interaction,Variant
1,with no effect,T331E
2,with no effect,N327K
3,with no effect,N327A
4,with no effect,N327E
5,with no effect,I338E
6,with no effect,I338K
7,with no effect,I338A
8,with no effect,G688K
9,with no effect,L341K
10,with no effect,L341E
11,with no effect,L341A
12,with no effect,D336E
13,with no effect,D336A
14,with no effect,D336K
15,with no effect,G326A
16,with no effect,G326K
17,with no effect,G326E
18,with no effect,R339E
19,with no effect,R339A

row,effect of a mutation on the interaction,Variant
1,with no effect,R339K
2,with no effect,A333E
3,with no effect,A333K
4,with no effect,E340A
5,with no effect,E340K
6,with no effect,R325K
7,with no effect,R325E
8,with no effect,R325A
9,with no effect,S332K
10,with no effect,S332E
11,with no effect,S332A
12,with no effect,E334K
13,with no effect,E334A
14,with no effect,L328K
15,with no effect,L328E
16,with no effect,L328A
17,with no effect,Q335E
18,with no effect,Q335K
19,with no effect,Q335A

# Variants of: B2
# Settings: with pthb1_human BBS9, Q3SYG4
# Remark: another data set of the same source
row,effect of a mutation on the interaction,Variant
1,disrupting interaction strength,L455E
2,disrupting interaction strength,S365R
3,disrupting interaction strength,G688K
4,disrupting interaction strength,I568E
5,disrupting interaction strength,W513E

# Variants of: B2
# Settings: with pthb1_human BBS9, Q3SYG4
# Remark: another data set of the same source
row,effect of a mutation on the interaction,Variant
1,with no effect,L455E
2,with no effect,W513E
